Results on four molecules are retold here after publication PMC10411877.

Data set [1] has as its target T1, GST-MAC3A (Arabidopsis thaliana (Col), UniProt Q94BR4 1-523).
T1 sequence: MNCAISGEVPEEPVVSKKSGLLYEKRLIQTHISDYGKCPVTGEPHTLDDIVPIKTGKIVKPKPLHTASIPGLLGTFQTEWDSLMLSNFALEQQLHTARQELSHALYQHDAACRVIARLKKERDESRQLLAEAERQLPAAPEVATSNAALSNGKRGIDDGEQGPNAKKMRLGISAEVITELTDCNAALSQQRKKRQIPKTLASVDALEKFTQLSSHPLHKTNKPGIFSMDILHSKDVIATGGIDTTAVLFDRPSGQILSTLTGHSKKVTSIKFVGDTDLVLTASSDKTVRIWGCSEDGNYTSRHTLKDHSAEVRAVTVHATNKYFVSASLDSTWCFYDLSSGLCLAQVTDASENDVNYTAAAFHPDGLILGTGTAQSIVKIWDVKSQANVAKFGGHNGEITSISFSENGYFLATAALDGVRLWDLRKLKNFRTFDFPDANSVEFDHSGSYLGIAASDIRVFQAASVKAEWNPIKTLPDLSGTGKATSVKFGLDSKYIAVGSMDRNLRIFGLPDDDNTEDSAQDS
The experiment in a line: FLISA.

In data set [2] the target is T1, GST-MAC3A. The experiment in a line: competition FLISA.
Data set [3] has as its target T1, GST-MAC3A. The experiment in a line: competition FLISA. The source holds these as a separate data set.

B1: pYUC8biotin (dsDNA)
DNA 1: CCTCTCCACGTGGCTTCCATTC
DNA 2: GAATGGAAGCCACGTGGAGAGG
Take B1: in the data set with GST-MAC3A [1], the binding result was “binds”.

B2: pIAA19biotin (dsDNA)
DNA 1: AATGACTCCACGTGTCGATATTG
DNA 2: CAATATCGACACGTGGAGTCATT
B2: in the data set with GST-MAC3A [1], the binding result is given as “binds”.

B3: cold pIAA19 (dsDNA)
DNA 1: ATCTGTTCCCTTAACCACCTTGT
DNA 2: ACAAGGTGGTTAAGGGAACAGAT
Regarding B3, the binding result with GST-MAC3A [2] is recorded as “binds”.

B4: cold pYUC8 (dsDNA)
DNA 1: CCTCTCCACGTGGCTTCCATTC
DNA 2: GAATGGAAGCCACGTGGAGAGG
As for B4, the binding result in the data set with GST-MAC3A [3] is reported as “binds”.
